Test results from article PMC4575908.

Test system: O=C(O)[C@H]1O[C@@H](Oc2ccc([N+](=O)[O-])cc2)[C@H](O)[C@@H](O)[C@@H]1O
Assay: purified protein, by the assay type
Conditions: 37.0 °C

Substance	Km [µM]	kcat [s⁻¹]	kcat/Km [M⁻¹ s⁻¹]
BfGUS (Bacteroides fragilis NCTC 9343)	1900 ± 300	18 ± 1	9500
CpGUS (Clostridium perfringens str. 13)	1100 ± 200	2.6 ± 0.6	2400
